Measured values: patent US20260008830A1 (FUNDACI CENTRE DE REGULACI GEN MICA, published 2026)

T1: IL-22 receptors R1 and R2 on HEK-Blue IL-22 reporter cells (UniProt Q8N6P7 16-574; Q08334 20-325, limits assumed)
T1 sequence (looked up) 1: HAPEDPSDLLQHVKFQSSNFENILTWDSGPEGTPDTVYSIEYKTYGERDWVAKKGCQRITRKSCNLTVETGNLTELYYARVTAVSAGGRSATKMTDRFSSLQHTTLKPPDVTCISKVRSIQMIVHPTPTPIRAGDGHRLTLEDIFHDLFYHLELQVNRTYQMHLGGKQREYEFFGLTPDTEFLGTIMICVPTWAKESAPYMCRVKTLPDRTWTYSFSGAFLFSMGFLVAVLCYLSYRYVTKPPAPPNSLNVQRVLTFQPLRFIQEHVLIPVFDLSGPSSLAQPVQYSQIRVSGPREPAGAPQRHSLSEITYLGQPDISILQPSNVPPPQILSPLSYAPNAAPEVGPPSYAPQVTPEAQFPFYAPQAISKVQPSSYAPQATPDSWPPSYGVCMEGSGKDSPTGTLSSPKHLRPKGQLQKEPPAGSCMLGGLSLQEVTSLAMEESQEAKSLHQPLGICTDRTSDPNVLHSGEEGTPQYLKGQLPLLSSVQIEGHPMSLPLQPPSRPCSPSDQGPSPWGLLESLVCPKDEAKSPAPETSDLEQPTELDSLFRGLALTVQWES
T1 sequence (looked up) 2: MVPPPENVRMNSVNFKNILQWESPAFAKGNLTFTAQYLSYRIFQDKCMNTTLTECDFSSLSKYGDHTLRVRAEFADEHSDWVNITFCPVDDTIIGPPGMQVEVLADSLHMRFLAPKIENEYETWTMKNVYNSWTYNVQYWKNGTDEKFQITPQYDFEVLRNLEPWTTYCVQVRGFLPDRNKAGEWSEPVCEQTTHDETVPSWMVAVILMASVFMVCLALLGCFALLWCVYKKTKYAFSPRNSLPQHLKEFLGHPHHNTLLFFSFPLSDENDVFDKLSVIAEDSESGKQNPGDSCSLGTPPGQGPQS

T2: IFN-gamma receptor on HEK-Dual cells (Human IFN-γ SEAP/Luciferase Reporter Cells, hkd-ifng)
T2 sequence (P15260 whole entry, looked up): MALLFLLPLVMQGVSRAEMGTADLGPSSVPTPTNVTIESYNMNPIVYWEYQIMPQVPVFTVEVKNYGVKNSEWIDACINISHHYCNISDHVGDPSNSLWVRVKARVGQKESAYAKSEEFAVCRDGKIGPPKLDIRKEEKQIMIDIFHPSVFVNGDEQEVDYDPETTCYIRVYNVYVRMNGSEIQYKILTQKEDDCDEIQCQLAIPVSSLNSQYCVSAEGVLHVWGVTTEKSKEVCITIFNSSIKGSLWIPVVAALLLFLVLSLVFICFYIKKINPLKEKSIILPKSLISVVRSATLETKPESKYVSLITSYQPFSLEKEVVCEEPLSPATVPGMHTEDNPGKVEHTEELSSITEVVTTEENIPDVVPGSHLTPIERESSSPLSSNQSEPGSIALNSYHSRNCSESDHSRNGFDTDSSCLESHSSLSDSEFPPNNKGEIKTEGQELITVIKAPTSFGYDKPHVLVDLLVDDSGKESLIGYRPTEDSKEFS
T2 sequence (P38484 whole entry, looked up): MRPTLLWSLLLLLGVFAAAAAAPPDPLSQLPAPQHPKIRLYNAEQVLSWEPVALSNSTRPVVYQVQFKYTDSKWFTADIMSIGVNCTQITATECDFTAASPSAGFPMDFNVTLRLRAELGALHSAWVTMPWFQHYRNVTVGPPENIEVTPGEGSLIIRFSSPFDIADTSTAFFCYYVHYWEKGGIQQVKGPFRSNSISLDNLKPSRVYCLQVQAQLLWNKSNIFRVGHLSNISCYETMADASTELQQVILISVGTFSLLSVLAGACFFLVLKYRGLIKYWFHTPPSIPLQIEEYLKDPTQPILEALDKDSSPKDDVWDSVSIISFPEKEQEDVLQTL

T3: IL-10 receptors R1 and R2 on HEK-Blue IL-10 reporter cells (UniProt Q13651 22-578; Q08334 20-325, limits assumed)
T3 sequence (looked up) 1: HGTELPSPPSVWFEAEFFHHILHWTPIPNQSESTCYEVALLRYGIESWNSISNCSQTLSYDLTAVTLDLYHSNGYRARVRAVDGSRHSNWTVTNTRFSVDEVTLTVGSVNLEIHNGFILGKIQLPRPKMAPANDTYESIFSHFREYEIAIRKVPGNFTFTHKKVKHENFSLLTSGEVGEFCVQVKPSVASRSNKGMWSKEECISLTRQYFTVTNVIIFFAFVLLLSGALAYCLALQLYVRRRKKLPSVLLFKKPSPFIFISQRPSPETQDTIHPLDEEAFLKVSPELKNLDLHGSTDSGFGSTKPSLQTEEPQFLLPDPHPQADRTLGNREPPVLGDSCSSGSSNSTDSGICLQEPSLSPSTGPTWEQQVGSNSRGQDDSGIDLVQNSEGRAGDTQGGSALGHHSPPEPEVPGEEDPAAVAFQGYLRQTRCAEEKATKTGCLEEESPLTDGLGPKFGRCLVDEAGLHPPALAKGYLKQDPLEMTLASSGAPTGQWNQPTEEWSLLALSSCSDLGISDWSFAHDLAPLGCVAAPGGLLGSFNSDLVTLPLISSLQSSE
T3 sequence (looked up) 2: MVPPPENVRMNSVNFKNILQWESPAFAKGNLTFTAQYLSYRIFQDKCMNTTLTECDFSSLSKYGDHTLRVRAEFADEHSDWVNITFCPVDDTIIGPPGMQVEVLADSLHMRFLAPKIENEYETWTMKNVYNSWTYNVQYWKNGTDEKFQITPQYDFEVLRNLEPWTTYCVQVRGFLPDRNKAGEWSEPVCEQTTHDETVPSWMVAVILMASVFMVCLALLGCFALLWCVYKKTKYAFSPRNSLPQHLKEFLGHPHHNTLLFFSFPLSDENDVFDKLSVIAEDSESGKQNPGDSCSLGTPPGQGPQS


Key:
Experiment in all cases: cell-based or functional assay
[1] = biological target: T1, IL-22 receptors R1 and R2 on HEK-Blue …
[2] = biological target: T2, IFN-gamma receptor on HEK-Dual cells …
[3] = biological target: T3, IL-10 receptors R1 and R2 on HEK-Blue …

EC-50 (IL-22 reporter HEK blue cells, SEAP, absorbance 630 nm) [1] [pM]	Binder	other results
97.6	IL22_WT (IL-22 WT expressed in CHO cells) (ligand) APISSHCRLDKSNFQQPYITNRTFMLAKEASLADNNTDVRLIGEKLFHGVSMSERCYLMKQVLNFTLEEVLFPQSDRFQPYMQEVVPFLARLSNRLSTCHIEGDDLHIQRNVQKLKDTVKKLGESGEIKAIGELDLLFMSLRNACI	
	ORKIFNg-002 (Foldikine-IFNG, single chain dimeric IFN gamma) (ligand) GSQDPYVKEAENLKKYFNAGHSDVADNGTLFLGILKNWKEESDRKIMQSQIVSFYFKLFKNFKDDQSIQKSVETIKEDMNVKFFNSNKKKRDDFEKLTNYSVTDLNVQRKAIHELIQVMASKPHPGQLWAYVKEAENLKKYFNAGHSDVADNGTLFLGILKNWKEESDRKIMQSQIVSFYFKLFKNFKDDQSIQKSVETIKEDMNVKFFNSNKKKRDDFEKLTNYSVTDLNVQRKAIHELIQVMAELSPAA	EC50 (HEK Dual cells responding to IFNγ) [2]: 0.0328 nM
	MutSC1_controlcenter_21 (ligand) KSKAVEQVKNAFNKLQEKGIYKAMSEFDIFINYIEAYMTMNFGGLDYLPNMLRDLRDAFSRVKTFFQMKDQLDNLLLKESLLEDFKGYLGCQALSEMIQFYLEEVMPQAENQDPDIKAHVNSLGENLKTLRLRLRRCHRFLPCENKSKAVEQVKNAFNKLQEKGIYKAMSEFDIFINYIEAYMTMNFGGLDYLPNMLRDLRDAFSRVKTFFQMKDQLDNLLLKESLLEDFKGYLGCQALSEMIQFYLEEVMPQAENQDPDIKAHVNSLGENLKTLRLRLRRCHFLPCEN	activation of HEK blue cells, apparent KD fit (drop against MutSC1) [3]: ~2.5 fold
2420	ORK22-014 (Foldikine-22, two polyGly InterLinkers) (ligand) APISESGEIKAIGELDLLFMSLRNACIGGGGGGGGGGAPISSHCRLDKSNFQQPYITNRTFMLAKEASLADNNTDVRLIGEKLFHGVSMSERCYLMKQVLNFTLEEVLFPQSDRFQPYMQEVVPFLARLSNRLSTCHIEGDDLHIQRNVQKLKDTVKKLGESGEIKAIGELDLLFMSLRNACIGGGGGGGGGGAPISSHCRLDKSNFQQPYITNRTFMLAKEASLADNNTDVRLIGEKLFHGVSMSERCYLMKQVLNFTLEEVLFPQSDRFQPYMQEVVPFLARLSNRLSTCHIEGDDLHIQRNVQKLKDTVKKLG	
43.3	ORK22-012 (Foldikine-22, two InterLinkers GGPPPPPPGG) (ligand) APISESGEIKAIGELDLLFMSLRNACIGGPPPPPPGGAPISSHCRLDKSNFQQPYITNRTFMLAKEASLADNNTDVRLIGEKLFHGVSMSERCYLMKQVLNFTLEEVLFPQSDRFQPYMQEVVPFLARLSNRLSTCHIEGDDLHIQRNVQKLKDTVKKLGESGEIKAIGELDLLFMSLRNACIGGPPPPPPGGAPISSHCRLDKSNFQQPYITNRTFMLAKEASLADNNTDVRLIGEKLFHGVSMSERCYLMKQVLNFTLEEVLFPQSDRFQPYMQEVVPFLARLSNRLSTCHIEGDDLHIQRNVQKLKDTVKKLG	
